Target: T1, Tse2 (type VI secretion exported protein 2) with glycogen synthase kinase (GSK) tag (Pseudomonas aeruginosa PAO1, UniProt Q9I0E0 1-158)
T1 construct: Toxin as detected in the co-immunoprecipitation in P. aeruginosa lysate; it is placed last here only by default; also called PA2702; not shown: GSK tag used for detection
T1 sequence: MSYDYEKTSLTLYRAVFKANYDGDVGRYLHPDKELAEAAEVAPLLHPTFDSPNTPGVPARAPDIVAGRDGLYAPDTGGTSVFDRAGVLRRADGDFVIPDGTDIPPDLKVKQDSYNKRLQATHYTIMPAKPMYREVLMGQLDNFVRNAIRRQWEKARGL
Assay: co-immunoprecipitation from P. aeruginosa lysate with anti-VSV-G agarose beads, Western blot for GSK-tagged Tse2

B1: Tsi2-V (type VI secretion immunity protein 2 fused to the vesicular stomatitis virus G epitope) (other)
chain: MNLKPQTLMVAIQCVAARTRELDAQLQNDDPQNAAELEQLLVGYDLAADDLKNAYEQALGQYSGLPPYDRLIEEPAS
binding result: binds

From patent US20120270271A1 (University of Washington, published 2012)
